US20020061531, “Detection of binding factors with fluorescence polarization” (published 2002)
Read-outs that look alike come from different tables or passages of the source.

Key:
[1] = target: T1, SSB protein (UniProt P0AGE0 P0AGE0:2-178); test: FP; CE/LIFP anisotropy 0.05 to 0.25; 25 mM Na2B4O7 pH 9.1; conditions: tags: Sigma; unlabeled; chain copies: tetramer (stated); label: fluorescein
[2] = target: T1, SSB protein; test: CE mobility; 25 mM Na2B4O7 pH 9.1, SSB in running buffer; Hill fit; conditions: tags: Sigma; unlabeled; chain copies: tetramer (stated); label: fluorescein
[3] = target: trp repressor (Escherichia coli, UniProt P0A881 P0A881:2-108); test: FP; CE/LIFP polarization 0.11 free to 0.25 with repressor; trp binding buffer pH 7.6
[4] = target: T2, HIV-1 reverse transcriptase (p66/p51) (Human immunodeficiency virus 1, UniProt P04585;P04585 P04585:588-1147,P04585:588-1027); test: CE/LIF; two complex peaks; lower binding constant than RT 26; 1xTBE; conditions: tags: Worthington Biochemicals; chain copies: heterodimer (stated)
[5] = target: T2, HIV-1 reverse transcriptase (p66/p51)
[6] = target: MMLV reverse transcriptase (Moloney murine leukemia virus, UniProt P03355 P03355:660-1330)
[7] = target: SSB protein, FITC-labeled (UniProt P0AGE0 P0AGE0:2-178); test: CE mobility shift of FITC-SSB, anisotropy change only ~0.02; pH 9.1; conditions: tags: FITC (5.3 dye per protein), Sigma; chain copies: tetramer (stated)
Chain of SSB protein, FITC-labeled (P0AGE0 2-178, one chain of several): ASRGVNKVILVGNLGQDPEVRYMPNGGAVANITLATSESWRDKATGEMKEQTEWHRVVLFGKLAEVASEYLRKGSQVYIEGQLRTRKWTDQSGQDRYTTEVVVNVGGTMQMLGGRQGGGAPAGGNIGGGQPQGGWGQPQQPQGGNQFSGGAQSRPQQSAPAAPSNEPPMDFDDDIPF

[8] = target: T1, SSB protein; test: FP; 1:1 complex; mobility and anisotropy gave similar values; 2:1 complex also seen; A=0.23; conditions: tags: Sigma; unlabeled; chain copies: tetramer (stated); label: fluorescein

T1 sequence (P0AGE0 2-178, one chain of several): as above

B1: F-11-mer (ssDNA)
DNA: CGCGATACGCC
Ka [1]: ~5e+06 M⁻¹
Ka [2]: ~4.4e+06 M⁻¹

B2: trp operator 25 bp (dsDNA)
DNA 1: ATCGAACTAGTTAACTAGTACGCAA
DNA 2: TTGCGTACTAGTTAACTAGTTCGAT
binding result [3]: binds

B3: RT 12 aptamer (ssDNA)
DNA: ATCTACTGGATTAGCGATACTCGATTAGGTCCCCTGCCGCTAAACCATACCGCGGTAACTTGAGCAAAATCACCACTGCAGGGG
binding result [4]: binds

B4: RT 26 aptamer (ssDNA)
DNA: ATCCGCCTGATTAGCGATACTTACGTGAGCGTGCTGTCCCCTAAAGGTGATACGTCACTTGAGCAAAATCACCTGCAGGGG
binding result [5]: binds
binding result [6]: no binding

B5: d(pT)18 (ssDNA)
DNA: TTTTTTTTTTTTTTTTTT
binding result [7]: binds

B6: F-37-mer (ssDNA)
DNA: CCTTAAGCTTCCTCAACCACTTACCATACTCGAGATT
Ka [8]: ~2e+07 M⁻¹
